These results are taken from patent publication US20230295272A1.

Assay [1] has as its target canine parvovirus (CPV), CPV-2c TS02 strain, purified virus (canine parvovirus CPV-2c (TS02 strain)). The experiment in a line: cell-based or functional assay.
For assay [2] the target is unchanged. The assay is described as follows: indirect ELISA, purified CPV coated at 10 ug/mL, purified nanobody diluted 1:10, anti-His-HRP. On the technique in general: ELISA stands for enzyme-linked immunosorbent assay.
The target is the same in assay [3]. The assay is described as follows: indirect ELISA, purified CPV coated at 10 ug/mL, purified nanobody diluted 1:100, anti-His-HRP.
The target is the same in assay [4]. The experiment in a line: indirect ELISA, purified CPV coated at 10 ug/mL, purified nanobody diluted 1:1,000, anti-His-HRP.
Assay [5] shares this target. The experiment in a line: indirect ELISA, purified CPV coated at 10 ug/mL, purified nanobody diluted 1:10,000, anti-His-HRP.

B1: canine parvovirus (CPV) nanobody CPV-VHH-E3 (VHH)
VHH: QLQLVESGGGSVQPGGSLRLSCAASGFTLDFYRVGWFRQAPGKERQGVACIGSAGDRTFYVDSVKGRFTISKDNTKNTVYLQMNSLKPEDTAVYYCAAVLSPRITSVQAMCTHHGEGFDYWGQGTQVTVSS
On to B1, for which the CPE number at antibody dilution 1:10 (of 3 wells with CPE) in assay [1] is 3. Further, the neutralizing titer (virus neutralization test, CPE on CRFK cells) (titer (1:x dilution)) in assay [1] was under 10. Besides, the OD450nm average value amounted to 2.81 OD450nm in assay [2], 2.6 OD450nm in assay [3], 2.24 OD450nm in assay [4] and 0.17 OD450nm in assay [5].
